In US6828136B2, “Esterase enzymes, DNA encoding esterase enzymes and vectors and host cells incorporating same” (Genencor International, Inc., priority 1996, dated 2004):
Like-named read-outs stand apart in the source and are kept apart here.

Legend:
38 kD esterase = 38 kD esterase (Aspergillus awamori, UniProt Q9P979); assay: API-20 enzyme test strip, substrate specificity for 38 kD esterase (Table 2); format: biochemical, Aspergillus niger; details: API-20 strip
Procedure: Purified 38 kD esterase was analyzed for a variety of biochemical activities with an API-20 enzyme test strip (BioMerieux Vitek) according to the manufacturers instructions. […] “+++” indicates very strong response, “++” indicates strong response and “+” indicates activity shown towards substrate. “−” means no activity detected.

[1] = from A. niger CBS120.49 grown on oat spelt xylan; cited from earlier work
[2] = from A. niger CBS120.49; cited from earlier work
[3] = substrate: COC(=O)/C=C/c1ccc(O)c(OC)c1; assay: purified protein, by the assay type; details: other: substrate of purified 38 kD esterase
[4] = substrate: COc1cc(/C=C/C(=O)OC[C@@H]2O[C@@H](O[C@@H]3[C@@H](O)[C@H](O[C@@H]4COC(O)[C@H](O)[C@H]4O)OC[C@H]3O)[C@H](O)[C@H]2O)ccc1O; assay: purified protein, by the assay type; details: other: substrate of purified 38 kD esterase
[5] = substrate: COc1cc(/C=C/C(=O)OC[C@@H]2O[C@@H](O[C@@H]3[C@@H](O)[C@H](O[C@@H]4COC(O)[C@H](O)[C@H]4O)OC[C@H]3O[C@@H]3OC[C@@H](O)[C@H](O)[C@H]3O)[C@H](O)[C@H]2O)ccc1O; assay: purified protein, by the assay type; details: other: substrate of purified 38 kD esterase
[6] = substrate: COc1cc(/C=C/C(=O)OC[C@@H]2O[C@@H](O[C@H]3[C@H](O)COC(O)[C@@H]3O)[C@H](O)[C@H]2O)ccc1O; assay: purified protein, by the assay type; details: other: substrate of purified 38 kD esterase
[7] = pH and temperature optimum of 38 kD esterase activity on methyl ferulate; format: biochemical; details: for maximal activity: methyl ferulate
Procedure: The enzyme sample was chromatographed by hydrophobic interaction chromatography (Poros® HPEM phenyl ether, Perseptive BioSystems, perfusion chromatography, […]). The column was connected to a BioCad® Perfusion Chromatography Workstation (Perseptive BioSystems) and equilibrated with 5 column volumes Tris-HCl (50 mM, pH 7.4) plus 1.2 M ammonium sulfate. The sample (205 ml) was applied to the column and separated at a flow rate of 30 ml/min with a linear gradient from 1.2 M to 200 mM ammonium sulfate over 20 column volumes. […] Four fractions eluting at 750 mM ammonium sulfate contained 83% of the starting FAE activity. Active fractions were pooled (60 ml), dialysed by ultrafiltration into start buffer for next chromatographic step (10 kDa membrane, 20L of 25 mM sodium acetate buffer pH 5.0). The sample was concentrated to 10 ml in preparation for ion exchange chromatography.
(§1) The 38 kD esterase isolated according to Example 1 was analyzed for biochemical properties. […] When the 38 kD esterase was incubated in buffer for 30 minutes without substrate at pH 5.1, the temperature optima was 55° C.

[8] = Isoelectric point by isoelectric focusing (IEF) gel; format: physicochemical
Procedure: Upon native PAGE of a desalted active fraction from HPSEC a single protein band was observed, The isolelectric point of the FAE was determined using Phast gel Dry IEF equilibrated with a solution ampholyte, (20% final concentration, containing a mix of pI 2-4, 80%, pI 3-10 20%) Glycerol (10%) for 1 hour. Separation was performed as per manufacturers recommendation (Pharmacia Biotechnology, Dry IEF instruction bulletin) and stained with coomassie R-250. The sample migrated as a single protein band with an isolelectric point of about 2.8.

[9] = Activity of purified 38 kD esterase toward natural and synthetic substrates (in words); format: biochemical; details: purified enzyme
Procedure: as §1

For `OC[C@H]1O[C@H](Oc2ccc3cc(Br)ccc3c2)[C@H](O)[C@@H](O)[C@H]1O` [6-Br-2-naphthyl-αD-galactopyranoside], the Activity (38 kD esterase; pH 5.4) was “(+++)”.

For `CCCC(=O)Oc1ccc2ccccc2c1` [2-naphthyl butyrate], the Activity (38 kD esterase; pH 6.5) was “(+++)”.

With `OC[C@H]1O[C@@H](Oc2ccc3cc(Br)ccc3c2)[C@H](O)[C@@H](O)[C@@H]1O` [6-Br-2-naphthyl-βD-glucopyranoside] the Activity (38 kD esterase; pH 5.4) was “(+++)”.

For `OC[C@H]1O[C@H](Oc2ccc3ccccc3c2)[C@H](O)[C@@H](O)[C@@H]1O` [2-naphthyl-αD-glucopyranoside], the Activity (38 kD esterase; pH 5.4) was “(+)”.

For `OC[C@H]1O[C@@H](Oc2ccc3ccccc3c2)[C@H](O)[C@@H](O)[C@H]1O` [2-naphthyl-βD-galactopyranoside], the Activity (38 kD esterase; pH 5.4) was “(++)”.

In the case of `O=P(O)(O)Oc1ccc2ccccc2c1` [2-naphthyl phosphate], the Activity (38 kD esterase; pH 5.4) is reported as “(+)”.

In the case of `CCCCCCCC(=O)Oc1ccc2ccccc2c1` [2-naphthyl caprylate], the Activity (38 kD esterase; pH 7.5) is reported as “(++)”.

With `CCCCCCCCCCCCCC(=O)Oc1ccc2ccccc2c1` [2-naphthyl myristate] the Activity (38 kD esterase; pH 7.5) was “(+)”.

In the case of `COc1ccccc1NC(=O)c1cc2cc(Br)ccc2cc1OP(=O)(O)O` [Naphthol-AS-BI-phosphate], the Activity (38 kD esterase; pH 5.4) is reported as “(++)”.

B1: FAE-III: ferulic acid esterase isolated from Aspergillus niger CBS 120.49 (Faulds et al.) (protein, UniProt O42807 22-281, looked up)
Feruloyl esterase A: ASTQGISEDLYNRLVEMATISQAAYADLCNIPSTIIKGEKIYNAQTDINGWILRDDTSKEIITVFRGTGSDTNLQLDTNYTLTPFDTLPQCNDCEVHGGYYIGWISVQDQVESLVKQQASQYPDYALTVTGHSLGASMAALTAAQLSATYDNVRLYTFGEPRSGNQAFASYMNDAFQVSSPETTQYFRVTHSNDGIPNLPPADEGYAHGGVEYWSVDPYSAQNTFVCTGDEVQCCEAQGGQGVNDAHTTYFGMTSGACTW
In the case of B1, the pI [1] is given as 3.3, the pH optimum [2] is given as 5 and the temperature optimum [2] is given as 55-60 °C.

B2: 38 kD esterase (Aspergillus awamori) (protein)
chain: ASTQGISEDLYSRLVEMATISQAAYADLCNIPSTIIKGEKIYNSQTDINGWILRDDSSKEIITVFRGTGSDTNLQLDTNYTLTPFDTLPQCNGCEVHGGYYIGWVSVQDQVESLVKQQVSQYPDYALTVTGHSLGASLAALTAAQLSATYDNIRLYTFGEPRSGNQAFASYMNDAFQASSPDTTQYFRVTHANDGIPNLPPVEQGYAHGGVEYWSVDPYSAQNTFVCTGDEVQCCEAQGGQGVNNAHTTYFGMTSGACTW
In the case of B2, the Km [3] is reported as 2080 µM, the Vmax [3] is reported as 87 µmol/min/mg and the Km [4] is reported as 19 µM. It also gave a Vmax [4] of 498 µmol/min/mg, a Km [5] of 52 µM and a Vmax [5] of 307 µmol/min/mg. For the same molecule, the Km [6] was 78 µM and the Vmax [6] was 276 µmol/min/mg.

B3: 38 kD esterase: esterase derived from Aspergillus niger, about 38 kD on SDS-PAGE, amino acid sequence SEQ. ID NO:28 (protein)
chain: MKQFSAKHVLAVVVTAGHALAASTQGISEDLYSRLVEMATISQAAYADLCNIPSTIIKGEKIYNSQTDINGWILRDDSSKEIITVFRGTGSDTNLQLDTNYTLTPFDTLPQCNGCEVHGGYYIGWVSVQDQVESLVKQQVSQYPDYALTVTGHSLGASLAALTAAQLSATYDNIRLYTFGEPRSGNQAFASYMNDAFQASSPDTTQYFRVTHANDGIPNLPPVEQGYAHGGVEYWSVDPYSAQNTFVCTGDEVQCCEAQGGQGVNNAHTTYFGMTSGACTW
B3 showed a temperature optimum ([7]; 250 μM methyl ferulate present) of 65 °C, a maximal activity ([7]; pH 3) of 83% and a maximal activity ([7]; pH 8) of 25%. For the same molecule, the “pI (isoelectric point)” value [8] was “about 2.8” and the “activity toward natural feruloyl and p-coumaroyl esters, cell walls of wheat bran and sugar beet pulp, wheat flour, pentosan fraction, ethyl and methyl esters of ferulic and p-coumaric acid” value [9] was “active”.
